Reference: PMC6508501, “Conserved redox‐dependent DNA binding of ROXY glutaredoxins with TGA transcription factors”

T1: PAN (…) (Arabidopsis thaliana, UniProt Q9SX27 1-452)
T1 sequence: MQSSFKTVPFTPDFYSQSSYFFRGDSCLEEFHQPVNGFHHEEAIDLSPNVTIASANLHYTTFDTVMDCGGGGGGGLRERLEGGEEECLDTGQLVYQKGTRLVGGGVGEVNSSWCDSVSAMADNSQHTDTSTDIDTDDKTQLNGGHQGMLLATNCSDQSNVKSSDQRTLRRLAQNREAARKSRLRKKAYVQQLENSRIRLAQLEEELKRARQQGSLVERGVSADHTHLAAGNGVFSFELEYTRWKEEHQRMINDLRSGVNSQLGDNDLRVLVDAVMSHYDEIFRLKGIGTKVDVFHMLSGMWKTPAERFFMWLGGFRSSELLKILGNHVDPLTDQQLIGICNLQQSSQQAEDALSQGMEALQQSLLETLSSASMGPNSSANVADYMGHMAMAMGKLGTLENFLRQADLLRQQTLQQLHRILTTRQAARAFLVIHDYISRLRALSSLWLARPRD

T2: MpROXY2 (Marchantia polymorpha (ssp. ruderalis, …, UniProt A0A2R6WT88 1-179))
T2 sequence: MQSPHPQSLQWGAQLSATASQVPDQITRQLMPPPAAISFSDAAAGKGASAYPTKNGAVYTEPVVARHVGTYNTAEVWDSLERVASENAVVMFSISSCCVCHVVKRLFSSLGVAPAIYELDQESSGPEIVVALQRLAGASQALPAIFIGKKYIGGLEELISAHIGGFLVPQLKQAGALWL

T3: PAN (…);MpROXY2 (Arabidopsis thaliana;Marchantia …, UniProt Q9SX27;A0A2R6WT88 1-452;1-179, |)
T3 sequence 1: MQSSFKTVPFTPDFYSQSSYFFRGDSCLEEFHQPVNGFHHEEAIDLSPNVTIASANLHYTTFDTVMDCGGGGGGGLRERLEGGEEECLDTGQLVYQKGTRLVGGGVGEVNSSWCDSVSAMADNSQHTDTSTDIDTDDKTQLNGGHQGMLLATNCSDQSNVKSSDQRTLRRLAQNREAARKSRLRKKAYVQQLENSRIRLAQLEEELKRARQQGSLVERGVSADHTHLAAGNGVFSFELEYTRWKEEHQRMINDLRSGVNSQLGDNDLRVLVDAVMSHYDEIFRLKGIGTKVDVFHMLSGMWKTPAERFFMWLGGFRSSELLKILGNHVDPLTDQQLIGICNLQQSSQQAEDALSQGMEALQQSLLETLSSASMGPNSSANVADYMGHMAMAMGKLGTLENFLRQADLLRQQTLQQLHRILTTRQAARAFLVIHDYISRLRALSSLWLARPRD
T3 sequence 2: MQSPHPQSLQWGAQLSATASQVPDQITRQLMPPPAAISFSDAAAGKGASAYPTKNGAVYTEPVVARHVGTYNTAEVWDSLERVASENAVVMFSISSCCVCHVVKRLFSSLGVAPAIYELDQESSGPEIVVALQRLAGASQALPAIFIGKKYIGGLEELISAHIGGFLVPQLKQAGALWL

T4: PAN (…);ROXY1 (Arabidopsis thaliana;Arabidopsis …, UniProt Q9SX27;Q96305 1-452;1-136, |)
T4 sequence 1: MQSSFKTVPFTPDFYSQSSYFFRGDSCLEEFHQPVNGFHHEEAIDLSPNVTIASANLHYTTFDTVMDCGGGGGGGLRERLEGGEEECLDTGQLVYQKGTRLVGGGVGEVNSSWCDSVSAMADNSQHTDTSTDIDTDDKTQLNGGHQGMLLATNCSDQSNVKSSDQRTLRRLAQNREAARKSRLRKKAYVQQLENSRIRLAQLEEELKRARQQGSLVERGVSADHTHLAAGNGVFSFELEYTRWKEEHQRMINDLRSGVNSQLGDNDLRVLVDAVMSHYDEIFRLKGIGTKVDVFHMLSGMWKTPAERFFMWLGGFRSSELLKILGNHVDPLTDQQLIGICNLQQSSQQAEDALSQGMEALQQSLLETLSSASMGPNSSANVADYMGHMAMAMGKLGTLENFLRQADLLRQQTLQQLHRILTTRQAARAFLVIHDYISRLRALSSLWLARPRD
T4 sequence 2: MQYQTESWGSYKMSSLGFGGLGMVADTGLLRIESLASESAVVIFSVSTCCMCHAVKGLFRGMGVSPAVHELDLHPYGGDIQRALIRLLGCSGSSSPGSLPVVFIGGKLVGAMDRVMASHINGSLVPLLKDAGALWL


What was measured:
[1] = target: mTRQ2-MpTGA (Marchantia polymorpha); assay: FRET or BRET; FRET-FLIM; 2in1 vector, donor mTRQ2 on MpTGA, acceptor mVENUS on MpROXY; 40 nuclei of N. benthamiana leaves; mono- or biexponential decay of the donor
PAN (…) = target: T1, PAN (…); assay: EMSA; Redox EMSA per Gutsche & Zachgo 2016 (buffer, salt, pH, temperature not stated); 0.9 mM DTT (red) or 2 mM diamide (ox); 500 ng recombinant protein per reaction; native gel; conditions: tags: N-terminal MBP (per Methods), chain copies: 2, label: 5' 6-FAM, blunt
MpROXY2 = target: T2, MpROXY2; assay: EMSA; 0.9 mM DTT or 2 mM diamide; Redox EMSA per Gutsche & Zachgo 2016 (buffer, salt, pH, temperature not stated); 0.9 mM DTT (red) or 2 mM diamide (ox); 500 ng recombinant protein per reaction; native gel; conditions: tags: N-terminal MBP, label: 5' 6-FAM, blunt
PAN (…);MpROXY2 = target: T3, PAN (…);MpROXY2; assay: EMSA supershift; Redox EMSA per Gutsche & Zachgo 2016 (buffer, salt, pH, temperature not stated); 0.9 mM DTT (red) or 2 mM diamide (ox); 500 ng recombinant protein per reaction; native gel; conditions: tags: N-terminal MBP (per Methods);N-terminal MBP, label: 5' 6-FAM, blunt
PAN (…);ROXY1 = target: T4, PAN (…);ROXY1; assay: as above; conditions: tags: N-terminal MBP (per Methods);MBP, label: 5' 6-FAM, blunt

reduced donor fluorescence lifetime (τDA) [1] [ns]	Molecule	binding result (PAN (…))	binding result (MpROXY2)	binding result (PAN (…);MpROXY2)	binding result (PAN (…);ROXY1)
< 2	mVENUS-MpROXY2 (natural protein)	–	–	–	–
< 2	mVENUS-MpROXY1 (natural protein)	–	–	–	–
–	as-1-like (dsDNA) DNA 1: CTACGTCACTATTTTACTTACGTCATAG DNA 2: CTATGACGTAAGTAAAATAGTGACGTAG	binds	no binding	binds	binds
